From US20200317768A1 (published 2020)

T1: cynomolgus monkey FcγRIIa2 extracellular domain with C-terminal His-tag (cynomolgus monkey)
T1 construct: Expressed in FreeStyle 293 cells and purified; also called cyno FcγRIIa2; cynoFcgRIIa2; not shown: C-terminal His-tag
T1 chain: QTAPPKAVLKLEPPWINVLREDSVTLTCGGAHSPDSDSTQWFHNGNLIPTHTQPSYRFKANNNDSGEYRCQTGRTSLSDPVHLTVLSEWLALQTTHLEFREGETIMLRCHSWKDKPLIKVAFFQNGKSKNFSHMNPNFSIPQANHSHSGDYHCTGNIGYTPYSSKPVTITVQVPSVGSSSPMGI

T2: human FcγRIIb extracellular domain with C-terminal His-tag (human, UniProt P31994 43-217)
T2 construct: Expressed in FreeStyle 293 cells and purified; also called humanFcgRIIb; not shown: C-terminal His-tag
T2 sequence: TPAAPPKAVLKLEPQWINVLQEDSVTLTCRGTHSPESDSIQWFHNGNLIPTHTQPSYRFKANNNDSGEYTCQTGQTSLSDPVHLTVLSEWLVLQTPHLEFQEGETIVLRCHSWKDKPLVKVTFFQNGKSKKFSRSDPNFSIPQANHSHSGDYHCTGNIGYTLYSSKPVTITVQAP

T3: human FcγRIIaR extracellular domain with C-terminal His-tag (human, UniProt P12318 34-217)
T3 construct: Expressed in FreeStyle 293 cells and purified; also called human FcγRIIa (type R); FcgRIIaR; not shown: C-terminal His-tag
T3 chain: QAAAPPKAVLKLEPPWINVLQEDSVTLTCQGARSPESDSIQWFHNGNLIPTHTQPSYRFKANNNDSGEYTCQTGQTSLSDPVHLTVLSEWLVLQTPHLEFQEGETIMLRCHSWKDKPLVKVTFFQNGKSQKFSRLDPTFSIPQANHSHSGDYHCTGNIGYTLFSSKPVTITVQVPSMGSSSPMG

T4: cynomolgus monkey FcγRIIa3 extracellular domain with C-terminal His-tag (cynomolgus monkey)
T4 construct: Expressed in FreeStyle 293 cells and purified; also called cyno FcγRIIa3; cynoFcgRIIa3; not shown: C-terminal His-tag
T4 chain: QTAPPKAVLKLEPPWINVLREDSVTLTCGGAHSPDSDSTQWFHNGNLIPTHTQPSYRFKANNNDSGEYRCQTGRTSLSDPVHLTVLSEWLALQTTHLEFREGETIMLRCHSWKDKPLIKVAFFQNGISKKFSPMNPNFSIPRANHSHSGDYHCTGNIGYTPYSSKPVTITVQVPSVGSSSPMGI

T5: cynomolgus monkey FcγRIIIaS extracellular domain with C-terminal His-tag (cynomolgus monkey, UniProt Q8SPW2 21-206 at identity 1.00))
T5 construct: Expressed in FreeStyle 293 cells and purified; also called cyno FcγRIIIaS; cynoFcγRIIIaS; not shown: C-terminal His-tag
T5 chain: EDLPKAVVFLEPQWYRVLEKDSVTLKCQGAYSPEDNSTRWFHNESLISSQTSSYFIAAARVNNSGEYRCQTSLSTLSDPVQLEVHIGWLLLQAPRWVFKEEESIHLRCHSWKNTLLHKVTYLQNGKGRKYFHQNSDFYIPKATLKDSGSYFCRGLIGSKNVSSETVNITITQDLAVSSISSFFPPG

T6: cynomolgus monkey FcγRIIb extracellular domain with C-terminal His-tag (cynomolgus monkey)
T6 construct: Expressed in FreeStyle 293 cells and purified; also called cyno FcγRIIb; cynoFcγRIIb; not shown: C-terminal His-tag
T6 chain: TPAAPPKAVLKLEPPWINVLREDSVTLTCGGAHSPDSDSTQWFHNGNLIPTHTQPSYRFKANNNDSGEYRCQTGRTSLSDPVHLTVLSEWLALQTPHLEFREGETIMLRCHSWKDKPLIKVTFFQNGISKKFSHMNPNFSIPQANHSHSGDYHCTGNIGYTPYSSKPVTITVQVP

T7: human FcγRIIaH extracellular domain with C-terminal His-tag (human, UniProt P12318 34-217)
T7 construct: Expressed in FreeStyle 293 cells and purified; also called human FcγRIIa (type H); FcgRIIaH; not shown: C-terminal His-tag
T7 sequence: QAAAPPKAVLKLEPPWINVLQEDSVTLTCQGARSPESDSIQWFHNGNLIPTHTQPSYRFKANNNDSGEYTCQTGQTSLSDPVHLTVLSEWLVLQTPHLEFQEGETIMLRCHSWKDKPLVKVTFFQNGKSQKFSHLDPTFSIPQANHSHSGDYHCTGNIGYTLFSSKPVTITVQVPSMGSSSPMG

T8: cynomolgus monkey FcγRIIa1 extracellular domain with C-terminal His-tag (cynomolgus monkey)
T8 construct: Expressed in FreeStyle 293 cells and purified; also called cyno FcγRIIa1; cynoFcgRIIa1; not shown: C-terminal His-tag
T8 chain: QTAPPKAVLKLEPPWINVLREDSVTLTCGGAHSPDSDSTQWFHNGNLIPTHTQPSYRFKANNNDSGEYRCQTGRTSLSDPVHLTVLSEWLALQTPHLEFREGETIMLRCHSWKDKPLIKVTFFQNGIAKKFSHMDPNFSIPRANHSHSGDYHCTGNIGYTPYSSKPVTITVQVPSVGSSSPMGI

B1: M103205H795-MY434 / M103202L889-SK1 (antibody, human IgG1, kappa)
heavy: QVTLKESGPVLVKPTETLTLTCTVSGIDLSHDDISWVRQAPGKGLEWVGIISYAGSTYYASWAKGRLTISKDTSKNQVVLTMTNMDPVDTATYYCARGVPAYSHGGDLWGQGTLVTVSSASTKGPSVFPLAPSSKSTSGGTAALGCLVKDYFPEPVTVSWNSGALTSGVHTFPAVLQSSGLYSLSSVVTVPSSSLGTQTYICNVNHKPSNTKVDKKVEPKSCDKTHTCPPCPAPELWNGPSVFLFPPKPKDTLMISRTPEVTCVVVDVSDEDPEVKFNWYVDGVEVHNAKTKPREEQYNSTYRVVSVLTVLHQDWLNGKEYKCKVSNKALPKPIEKTISKAKGQPREPQVYTLPPSREEMTKNQVSLTCLVKGFYPSDIAVEWESNGQPENNYKTTPPVLDSDGSFFLYSKLTVDKSRWQQGNVFSCSVMHEALHNHYTQKSLSLSP
light: DIVMTQSPATLSLSPGERATLSCTSSQSVYHANWLSWFQQKPGQPPKLLIYWASTLAYGVPSRFSGSGSGTDFTLTISSLQPEDAATYYCAGGYGGGRYAFGQGTKVEIKRTVAAPSVFIFPPSDEQLKSGTASVVCLLNNFYPREAKVQWKVDNALQSGNSQESVTEQDSKDSTYSLSSTLTLSKADYEKHKVYACEVTHQGLSSPVTKSFNRGEC
notes: Fc variant of M103205H795-SG1, expressed with M103202L889-SK1 as light chain
B2: M103205H795-MY440 / M103202L889-SK1 (antibody, human IgG1, kappa)
heavy: QVTLKESGPVLVKPTETLTLTCTVSGIDLSHDDISWVRQAPGKGLEWVGIISYAGSTYYASWAKGRLTISKDTSKNQVVLTMTNMDPVDTATYYCARGVPAYSHGGDLWGQGTLVTVSSASTKGPSVFPLAPSSKSTSGGTAALGCLVKDYFPEPVTVSWNSGALTSGVHTFPAVLQSSGLYSLSSVVTVPSSSLGTQTYICNVNHKPSNTKVDKKVEPKSCDKTHTCPPCPAPELWNGPSVFLFPPKPKDTLMISRTPEVTCVVVDVSDEDPEVKFNWYVDGVEVHNAKTKPREELYNSTYRVVSVLTVLHQDWLNGKEYKCKVSNKALPKPIEKTISKAKGQPREPQVYTLPPSREEMTKNQVSLTCLVKGFYPSDIAVEWESNGQPENNYKTTPPVLDSDGSFFLYSKLTVDKSRWQQGNVFSCSVMHEALHNHYTQKSLSLSP
light: DIVMTQSPATLSLSPGERATLSCTSSQSVYHANWLSWFQQKPGQPPKLLIYWASTLAYGVPSRFSGSGSGTDFTLTISSLQPEDAATYYCAGGYGGGRYAFGQGTKVEIKRTVAAPSVFIFPPSDEQLKSGTASVVCLLNNFYPREAKVQWKVDNALQSGNSQESVTEQDSKDSTYSLSSTLTLSKADYEKHKVYACEVTHQGLSSPVTKSFNRGEC
notes: as for B1
B3: M103205H795-MY538 (Table 19; L235W/G236N/H268D/Q295L/K326T/A330K) / M103202L889-SK1 (antibody, human IgG1, kappa)
heavy: QVTLKESGPVLVKPTETLTLTCTVSGIDLSHDDISWVRQAPGKGLEWVGIISYAGSTYYASWAKGRLTISKDTSKNQVVLTMTNMDPVDTATYYCARGVPAYSHGGDLWGQGTLVTVSSASTKGPSVFPLAPSSKSTSGGTAALGCLVKDYFPEPVTVSWNSGALTSGVHTFPAVLQSSGLYSLSSVVTVPSSSLGTQTYICNVNHKPSNTKVDKKVEPKSCDKTHTCPPCPAPELWNGPSVFLFPPKPKDTLMISRTPEVTCVVVDVSDEDPEVKFNWYVDGVEVHNAKTKPREELYNSTYRVVSVLTVLHQDWLNGKEYKCKVSNTALPKPIEKTISKAKGQPREPQVYTLPPSREEMTKNQVSLTCLVKGFYPSDIAVEWESNGQPENNYKTTPPVLDSDGSFFLYSKLTVDKSRWQQGNVFSCSVMHEALHNHYTQKSLSLSP
light: DIVMTQSPATLSLSPGERATLSCTSSQSVYHANWLSWFQQKPGQPPKLLIYWASTLAYGVPSRFSGSGSGTDFTLTISSLQPEDAATYYCAGGYGGGRYAFGQGTKVEIKRTVAAPSVFIFPPSDEQLKSGTASVVCLLNNFYPREAKVQWKVDNALQSGNSQESVTEQDSKDSTYSLSSTLTLSKADYEKHKVYACEVTHQGLSSPVTKSFNRGEC
notes: Fc variant of M103205H795-SG1, expressed with M103202L889-SK1; the text names MY518 for this set of substitutions; also called probably MY518 of the text

Columns and labels:
Assay in all cases: SPR (Biacore); KD of SG1 divided by KD of the variant for this FcgR;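 note: relative to parent M103205H795-SG1 carrying the SG1 human heavy chain constant region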
[1] = target: T1, cynomolgus monkey FcγRIIa2 …
[2] = target: T9, human FcγRIIIaV extracellular domain with C-terminal His-tag (human, UniProt P08637 17-208)
T9 construct: Expressed in FreeStyle 293 cells and purified; also called FcgRIIIaV; not shown: C-terminal His-tag
T9 sequence (P08637 17-208 F176V): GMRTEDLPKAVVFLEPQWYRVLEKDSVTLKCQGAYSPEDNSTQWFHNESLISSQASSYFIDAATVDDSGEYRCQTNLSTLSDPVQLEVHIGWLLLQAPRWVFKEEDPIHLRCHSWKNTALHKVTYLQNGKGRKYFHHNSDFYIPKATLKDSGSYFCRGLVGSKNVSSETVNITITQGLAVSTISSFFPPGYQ

[3] = target: T2, human FcγRIIb extracellular domain with …
[4] = target: T3, human FcγRIIaR extracellular domain …
[5] = target: T4, cynomolgus monkey FcγRIIa3 …
[6] = target: T5, cynomolgus monkey FcγRIIIaS …
[7] = target: T6, cynomolgus monkey FcγRIIb extracellular …
[8] = target: T7, human FcγRIIaH extracellular domain …
[9] = target: T8, cynomolgus monkey FcγRIIa1 …

Row | Binder | KD fold (SG1 = 1) [1] [fold] | KD fold (SG1 = 1) [2] [fold] | KD fold (SG1 = 1) [3] [fold] | KD fold (SG1 = 1) [4] [fold] | KD fold (SG1 = 1) [5] [fold] | KD fold (SG1 = 1) [6] [fold] | KD fold (SG1 = 1) [7] [fold] | KD fold (SG1 = 1) [8] [fold] | KD fold (SG1 = 1) [9] [fold]
1 | B1 | 2.1 | 0.05 | 3.3 | 0.6 | 2.7 | 0.03 | 2.4 | 0.4 | 1.1
2 | B2 | 2.8 | 0.05 | 5.8 | 1 | 3.5 | 0.04 | 5.9 | 0.8 | 2
3 | B3 | 5.7 | 0.04 | 9.6 | 1.6 | 7.1 | 0.09 | 6.9 | 0.8 | 3.6
